According to patent publication US20180222961A1 (IMMATICS BIOTECHNOLOGIES, published 2018):

What follows are binders tested against T1, HLA-B*07:02 (human) (assay: UV-exchange b2m ELISA; exchange-yield grade).
T1 construct: also called peptide-receptive MHC molecules
Description: Candidate peptides for T cell based therapies according to the present invention were further tested for their MHC binding capacity (affinity). The individual peptide-MHC complexes were produced by UV-ligand exchange, where a UV-sensitive peptide is cleaved upon UV-irradiation, and exchanged with the peptide of interest as analyzed. Only peptide candidates that can effectively bind and stabilize the peptide-receptive MHC molecules prevent dissociation of the MHC complexes. To determine the yield of the exchange reaction, an ELISA was performed based on the detection of the light chain (β2m) of stabilized MHC complexes. The assay was performed as generally described in Rodenko et al. (Rodenko et al., 2006).
96 well MAXISorp plates (NUNC) were coated over night with 2 ug/ml streptavidin in PBS at room temperature, washed 4× and blocked for 1 h at 37° C. in 2% BSA containing blocking buffer. Refolded HLA-A*02:01/MLA-001 monomers served as standards, covering the range of 15-500 ng/ml. Peptide-MHC monomers of the UV-exchange reaction were diluted 100-fold in blocking buffer. Samples were incubated for 1 h at 37° C., washed four times, incubated with 2 ug/ml HRP conjugated anti-β2m for 1 h at 37° C., washed again and detected with TMB solution that is stopped with […]. Absorption was measured at 450 nm. Candidate peptides that show a high exchange yield (preferably higher than 50%, most preferred higher than 75%) are generally preferred for a generation and production of antibodies or fragments thereof, and/or T cell receptors or fragments thereof, as they show sufficient avidity to the MHC molecules and prevent dissociation of the MHC complexes.

Row | Binder | peptide exchange yield
1 | LYVDGFTHW | 20 to 50%
2 | LPTQTTSSL | 50 to 75%
3 | TPTKETVSL | 50 to 75%
4 | NVLTSTPAF | 20 to 50%
5 | SPLVTSHIM | 50 to 75%
6 | LPLGTSMTF | 50 to 75%
7 | SPAEPSVYATL | > 75%
8 | SPALHIGSV | 50 to 75%
9 | FPFNPLDF | 20 to 50%
10 | FPYSEVTTL | 50 to 75%
11 | SPVPVTSLF | 50 to 75%
12 | FPHSEMTTL | 50 to 75%
13 | FPHSEMTTV | 50 to 75%
14 | SPMHDRWTF | 50 to 75%
15 | TPSVVTEGF | 20 to 50%
16 | SPAMTTPSL | 50 to 75%
17 | EPVTSSLPNF | 20 to 50%
18 | VPTPVFPTM | 20 to 50%
19 | LPAGTTGSLVF | 50 to 75%
20 | RPRSPAGQVAA | 50 to 75%
21 | SPSTIKLTM | 50 to 75%
22 | VPYRVVGL | 20 to 50%
23 | FPNRLNLEA | 50 to 75%

Row | Binder | peptide exchange yield
24 | SPDPSKHLL | 20 to 50%
25 | RPRSPAGQVAAA | 50 to 75%
26 | LPWDTSTTLF | 50 to 75%
27 | SPMDTFLLI | 20 to 50%
28 | SPNEFYFTV | 50 to 75%
29 | RPMPNLRSV | 50 to 75%
30 | SPTHVTQSL | 50 to 75%
31 | PGGTRQSL | 10 to 20%
32 | LPEQTPLAF | 20 to 50%
33 | AAASPLLLL | 20 to 50%
34 | TPLATTQRFTY | 20 to 50%
35 | SPSVSSNTY | 20 to 50%
36 | LPSVSGVKTTF | 20 to 50%
37 | IPTYGRTF | 50 to 75%
38 | MPLTTGSQGM | 20 to 50%
39 | LPEISTRTM | 20 to 50%
40 | TAKTPDATF | 20 to 50%
41 | FPAMTESGGMIL | 50 to 75%
42 | MPNSAIPFSM | 50 to 75%
43 | TPLATTQRF | 20 to 50%
44 | SPAETSTNM | 50 to 75%
45 | SPLPVTSLI | 50 to 75%
46 | SPLPVTSLL | 50 to 75%

Row | Binder | peptide exchange yield
47 | FPHPEMTTSM | 50 to 75%
48 | FPFVTGSTEM | 20 to 50%
49 | HPVETSSAL | 50 to 75%
50 | RPRALRDLRIL | 50 to 75%
51 | FPHSEMTTVM | 50 to 75%
52 | MPSLSEAMTSF | 50 to 75%
53 | RPRSPAGQVA | 50 to 75%
54 | LPTSESLVSF | 20 to 50%
55 | VPSEIDAAF | 20 to 50%
56 | YPGLRGSPM | 50 to 75%
57 | HPKTESATPAAY | 20 to 50%
58 | HVTKTQATF | 20 to 50%
59 | NPIGDTGVKF | 50 to 75%
60 | NPSSTTTEF | 50 to 75%
61 | GPFPLVYVL | 50 to 75%
62 | HPDPVGPGL | 20 to 50%
63 | IPRNPPPTLL | 50 to 75%
64 | SPSPVPTTL | 50 to 75%
65 | GPRNAQRVL | 50 to 75%
66 | FPMSPVTSV | 50 to 75%
67 | LPLDTSTTL | 50 to 75%
